Assay results: the DeepSol protein solubility set

assay: soluble on expression in E. coli; label from the status in PepcDB or PDB records

Row | Sequence | soluble on expression in E. coli
1 | MGSDKIHHHHHHMAETAPAPYFSEIARGPDQVEAHWLTTQDGQRIRAGLWRSHGPSAGTILLFPGRTEYIEKYGPLAIDLTDRGFDVLTVDWRGQGLADRSLSDGRLGHVAEFGAFQLDVAALVAHAEALNLPRPWYLLGHSMGGAIGLRALHEGLPVAACAFTAPMWAIRIPFALRPAARLLARFGTALGVSEKLVPTTTIEQYVQVTPFEGNTLTNDPEMYAFLQMQMTQHPELALGGPTVQWLSQAMLECADLRARPSPDVPCVTFLGENEQIVATEAIHDRMARWPSGKLEMIPDAQHEILMEIPQTRRQTCAILTAHFKKHV | not soluble
2 | MGSDKIHHHHHHMAFDEMINADSSPRQPYSTYHQWYASQDRNRLIAKSKEAEKIFRKTGITFAVYGHADSSEKLIPFDLIPRIISGREWRRLAQGIEQRVIALNAFLDDIYHKQEIIRAGRIPRELVEKNDTFLPQMIGFRPPGGVYTHIVGTDIVRTGEDQYYVLEDNARTPSGVSYMLENRETMMQMFPELFHQNRVRPVENYPNLLRQSLSSLAPAGCEGKPRVAVLTPGIYNSAFYEHAFLADMMGVELVEGSDLRVIDGRVKMRTTRGYEAIDVLYRRVDDDFLDPLTFRPDSALGIPGIMDVYRAGNITIANAPGTGISDDKAIYSYMPEIVEFYTGRKPLLENVPTWRCSEPESLKYVLEHLAELVVKEVHGSGGYGMLVGPTATKKECAAFAEKLKSRPGNYIAQPTLSLSTVPIMVNKGIAPRHVDLRPYVLVSDKVQIIPGGLTRVALKEGSLVVNSSQGGGTKDTWVLED | not soluble
3 | MGSDKIHHHHHHMAFNQRTVVMIGPGEHYVTAKNEVIKTLLGSCVAVCLYDPKAQVIGMNHFLLAADRRKFTHFLDSRAGYYGVHAMEILINAMLKRGAQRKYLQSKIFGGANVLSLCADNILNHYDIGGMNIDFVRHFLQRERIPIISEDIGGHCGRVIYFDPTDYSVYRSLIEHKYEEIASLQDEEYRYFNQASEDIHSSGVPVVIWSD | not soluble
4 | MGSDKIHHHHHHMAGGSFMDDLRRGAGDLSVRASVREQDLNTYIMKVSCPARSGIVAAVSGYLARSGCNINDSSQFTDQETARFFMRLSFISEQGSGREALLDGFGSVAADFDMDYDIHDLSQKKKIVIMVSRFGHCLNDLLYRSRIGALPVEIVAVISNHLDYQKQVVNEDIPFHHIRVTPETKPEAEGAILQVVRDTGAELVVLARYMQVLSDQLCQEMSGRIINIHHSFLPSFKGANPYKQAYERGVRLIGATAHYVTADLDEGPIIEQDTIRVTHAQSGMDYVSLGRDVESQVLARAIHAHIHQRVFLNGNKTVVFPASPGEHVSERMG | not soluble
5 | MGSDKIHHHHHHMAHEAQKAIARNSLLIRSLPEQHVDALLSQAVWRSYDRGETLFLQEEKAQAIHVVIDGWVKLFRMTPTGSEAVVSVFTRGESFGEAVALRNTPYPVSAEAVTPCEVMHIPSPVFVSLMRRDPEICISILATTFGHLHSLVAQLEQLKAQTGAQRVAEFLLELCDCDTGACEVTLPYDKMLIAGRLGMKPESLSRAFSRLKAAGVTVKRNHAEIEDIALLRDYAESDPADSWSKS | not soluble
6 | MGSDKIHHHHHHMAKADLDKDPFDVASMFDDVGKNYDLTNTVLSFGQDRVWRKRTRQRLDLKPGEKVLDLAAGTAVSTVELAKSGAFCVACDFSQGMLAAGKDRDVSKVVGDGMQLPFADNSFDAVTISYGLRNIHDFRAGLKEMARVTKPGGRLTVAEFSTPVIPVFGTVYKEYLMRLLPQAARAVSSNPEAYIYLADSIRAWPSQAELAREINQNGWSDCGWQNLTFGIVALHSAIKPEN | not soluble
7 | MGSDKIHHHHHHMAKAFASQGDMSEKKISFTEVGEGLYAFTAEGDPNSGVIIGDDSVMVVEAQATPRLAQKVIDCIREVTDKPISHVVLTHYHAVRVLGASAFGAGQVIMSDTARSMVVERGQEDWDSEFQRFPRLFEGHESIPGLTWPTTTFSDSMTVYLGKRRVDIMHLGRAHTAGDAVIHVPDQNVMFTGDIVEYHSACYCGDGHFNDWGNTLDNIAWFDVDAIAPGRGDALVGKEMVNAAIENTRDFVQSTYRPAARVAARGGSLKEAWDAVRAECDPKFADYAIYEHCLPFNVARAYDEARGIDTPRIWTAQRDLEMWEALQG | not soluble
8 | MGSDKIHHHHHHMAKKLFDYQLDETVDGYFLLKDSEVRIAKNGKKFLAINFQDTSGEISGKFWDASDTDVENFQAGRIVHLKGKRENYQGNPQIKIQQMRLTHSGEPQEVQQFVEHAPLKTDTMADEINQFVFEITEPNWNRIVRHMLTTFHDRFFSYPAAKKNHHAFAGGLAYHTLSILRLAKAVADQYPHVNRALLYAGAILHDMGKTIEMSGPVSTTYTLAGNLVGHIVLIDEQIVETCQQLKIDEQSESVLVLRHTILAHHGLLEYGSPVRPHIMEAEILHDLDELDASIQMMQTSLGHAEPGTYTERIFAMDGRNFYRPTGDQTKGELPDEQN | not soluble
9 | MGSDKIHHHHHHMAKKVAVLAVNPVNGCGLFQYLEAFFENGISYKVFAVSDTKEIKTNSGMVLIVDDVIANLKGHEDEFDALVFSCGDAVPVFQQYANQPYNVDLMEVIKTFGEKGKMMIGHCAGAMMFDFTGITKGKKVAVHPLAKPAIQNGIATDEKSEIDGNFFTAQDENTIWTMLPKVIEALK | not soluble
10 | MGSDKIHHHHHHMANGTTPSVGIALGSGAAKGWAHIGVLNGLAAMGIKPDKVAGCSVGALVGAAYAHDHLPELEEWVRSFSSWDVLGLMDIRWRKGGLIGGDKVFDVLQARIGDVNIENLNRPFAAVATDLYSGQEIWFTEGDLRQAVRASCSMPGILAPVRQGDRWLVDGAVVNPVPVSVSRAMGVDVVIAVDLYGYHSGRIQVLPVSMTSQKNVEAEMDMSARQETGFMDLFARGRDYVSNLTDKFSLGTKSNPGMIAVMSQSMGILEQRHKRARLMGDPPDICIVPEVGNIGTMEFHRADEAIAAGEAAVEKVAHLIEAALWKG | not soluble
11 | MGSDKIHHHHHHMAQTVSIIVSPEDQVRLAEVIGDRNSPQKHVQRARIVLHSAEHRPVLEVARDIGISRPAVWRWQLRYAEQGVDGLLRDKTRKPGKPPLPLGTVARVLALPCSNPPGSVTHWTGRAVAKAVGISLRAVQRIWDAHHLQPHRLRTFKKSKDPAFTEKVEDVVGLYMEPPCHAVVLSIDEKSQIQALDRTQPGLPLKPGKCATMTHDYKRNGTTTLFAALNILDGTVLGRCMQKHRHQEFIKFLNAVERAVPAGKIIHAILDNYGTHKHPKVRQWLADHPRWVFHFTPTL | not soluble
12 | MGSDKIHHHHHHMARLSEGWSKEPFFLFFHPPKSPTKKENIKMNYRETLQAVDTEKALSVIGINSTLQGAYVKFNCPECEQQALIKAYGEKKNLWYCPKCKKSGHIISLTMTKKNIQWEEAKDLLLKARNGVKKITEEFNLKYDLQYNDFIKDKGLSEDICKFLEIGTPKGKTMLSGCVAFLVRDEVGMRVAYFGIKMKDEKHVFHKSFNPEQYLYGFQNLDFAYDVYFTTDLFECIKHIENGFQCVCNFGLPYISNEQMELLEKAERVTFSIRDELVKPFALQLTQRQKFYRFIK | not soluble
13 | MGSDKIHHHHHHMASILAVDVGTTSIKAGIVSTENFEAESTQSTRAVVEYPKKHWAEKDPEKLWNSIVEVCKPLAEKANPDAIVFGAHMAGVVPVDGEGNALRNIITWLDERAAGLPEDVWKGLIKIQGYSLTKLIKFLRLTGGAPSRTGKDPISKIVWIRENEPDVFGKTFKMLDVRGYLVARATGNFVTSPDEAHLTWLADTRGGKARWSESILKDYALSASLFPEIKNCTEIAGYLRPEVRKEFGLEGDVPVMVGSGDVAAAAVGSGAVKDYECHIYVGTSDWVAAHIPQRKTDIFHFIGSLLSAIPEKYLLIAEQEVAAGALEWAMRLVGIQGEYELVKELVEKAPAGKLIFMPWFYGERAPIDDPYVRGGLVNVGLDSGREEVLRAMMEGVALNIKWVFGYVEKMTAPQQMVSIVGGGALFDIWCQIISNAVRRPLRRIKHPEETGLRGLATMAAVGLGEESFESAAAKFEVDRVFKPDDEEAKVYDRLFEYYKELYSKLKKVYRKLNSAEY | not soluble
14 | MGSDKIHHHHHHMASSSEGVSVLEIECKVVTPMFSRGAAEPKWENGNRVYPFELRPQSIKGVLRFWFRAIAPTVIDIYSLEGLENLSKKEKERWEKEKYKGLKYLEGLIFGSQERKSSFSLEVKVEGESQALGKYMNNRFSFTDDRLKDTKYALYGLYDKSGIYEYLQEGKNFIIILQTANDSIKGIILSLLKLVSTFSGFGAKTRKGFGEFEIVDPKLTRNDYNLVISECQEHIREFVNHHNSSSKVKIKLGRTNFNGIPDFPCFCDYKIFEITKFSGNSPLEVLREVFKVGRNFKGWYPSLKQKMRFSEGDCVKDLVEALEGLLKGRKTEKKIEIPTAVVGLPIQYQNLGRGEIRRLKVIVSSSLRGLGIDDIDGRKASPLFLSVHEGERGKWKLVVLLMRSRVTNDGELITEVKGGKTPSSGIKTIVKEEKDYKNLLEWIKKLGGKEIQGG | not soluble
15 | MGSDKIHHHHHHMATAIRGLKLQTEDYFLTDKNAVMVAERHPQPVFPLHHHDFDELVIVWRGNGLHLWNDVPYRITRGDMFYVSAHDRHSYESVHELELDNILYIRNRLTLSADWQTLLPSGELPQSQRHWCLGSEGMDTIREKVDALTQECMKSDALSLQLSEALLLQIALLAARYRHSPDSPQLADAHQLDMLMNALRASIAAPFRFEAFCEQHHFSARSLRSRFKEQTGMSVPHYLRQLRLCKAMELLRYDLQTIGDVAALCGFEDSNYFSVVFHQAFGVSPSAYRQRFLNVE | not soluble
16 | MGSDKIHHHHHHMATENKIKYFENREDWRKWLMDNFETEDEIWFVFPLKSSGEKSIAYNDAVEEALCFEWIDSTIKPLDKEHRIQRFTPRKPKSTYSQANKERLKWLLANKMIHPEFEDKIRTVLSDPFIFPNDIMDRLKEDEIAWRNYRHFSDAYKRIRIAYIEAARKRPEEFEKRLNNFICKVKENKMITGFGGIEKYY | not soluble
17 | MGSDKIHHHHHHMATHNHTLTMEWIVDRTRTVYSLPYFYERLNEAINHPRSSIDDVARIIIDDQGLTARILKLANSPMFGFFSKVDSISKAVTIIGTQQLRDLALAASVMDVFKDIPRELMDMVLFWRHSIACGIVARNLAIYLRESNVERFFVAGILHDVGQLVMCTAIPEKVSEVLARNRLESRFLDATERDALGFDHAALGGALLRAWKIPATINEPVAYHHEPGKAEQFSLEVSIIHLADIICQALGYGASGEGGVPLLDPAAWDRLGVPVSILTTIVKQSEPQVEETFAILVEG | not soluble
18 | MGSDKIHHHHHHMATTLFIQRGDIAAWLADTAATHTVYAPLRDKTGVRFHRLCAQDAAAQTQALELDRQAQTPPKNVLLPACETLLEFSYAKQEDGSTSLDVQPVMPQGAVLLFGPRPCDARAFTVFDRVYDAGRGKDPYYTARRAATVVASVVCTRPEQSCFCTAVGGAPDDTEGSDILFTPVQDGFIVRPLTQAAEAVLRHPLFTEAAHREEEAADVCAAARAAVPCAPADFTAAPEPVAALFDDMEFWQSVTAKCLSCGACTYLCPTCYCFNITDESNGLEGRRLRTWDNCMSFQFTLEGSGHNPRPTKAHRYRNRIGHKFSYYPRIHDGALSCVGCGRCISSCPVTMDIRRIVHSAMQRAQCATPEQAHE | not soluble
19 | MGSDKIHHHHHHMAVILFDIDGTLIDSTDQMTEAIHLAMEDMPHLVKPSKASVQSSYGLAGNAFWRKAIPDASENDIKEIRRKRHHHLEQTMQNQDVLFDGIRELLEQLTNQGHIVSTASNCGVHYLNLVLDSQNIRSYFTSPKCLESVNGKQKADILAAHREEFSEVDYLMVGDRSSDVEAARLQNMPVAICCFGFGTEQEWKTADHQLETPLDLLKFV | not soluble
